Assay results from PMC6715661, “Cardiac MLC2 kinase is localized to the Z-disc and interacts with α-actinin2” (Scientific Reports, 2019).

Biological target: T1, Myc-α-actinin2, full length, expressed in HEK293 cells (mouse, UniProt Q9JI91 1-894)
T1 construct: α-actinin2, cloned by RT-PCR from RNA of neonatal mouse hearts into pAdlox (pAdlox-Myc-α-actinin2), full length; also called Myc-tagged full-length α-actinin2; source: HEK293 cells, exogenous expression, in lysate (co-IP); purified from HEK293 cells (BLI)
Assay: BLI; Octet RED384, 30 °C; biotinylated anti-Myc antibody on streptavidin biosensors captures Myc-α-actinin2 (10 μg/ml, 100 nM); HA-cMLCK in solution, two-fold dilutions from 14 to 1.75 μg/ml; 20 mM Tris, 150 mM NaCl, 0.002% Tween, pH 7.3; global fit, 2:1 heterogeneous ligand analysis
Conditions: both partners purified

T1 sequence (Q9JI91 whole entry): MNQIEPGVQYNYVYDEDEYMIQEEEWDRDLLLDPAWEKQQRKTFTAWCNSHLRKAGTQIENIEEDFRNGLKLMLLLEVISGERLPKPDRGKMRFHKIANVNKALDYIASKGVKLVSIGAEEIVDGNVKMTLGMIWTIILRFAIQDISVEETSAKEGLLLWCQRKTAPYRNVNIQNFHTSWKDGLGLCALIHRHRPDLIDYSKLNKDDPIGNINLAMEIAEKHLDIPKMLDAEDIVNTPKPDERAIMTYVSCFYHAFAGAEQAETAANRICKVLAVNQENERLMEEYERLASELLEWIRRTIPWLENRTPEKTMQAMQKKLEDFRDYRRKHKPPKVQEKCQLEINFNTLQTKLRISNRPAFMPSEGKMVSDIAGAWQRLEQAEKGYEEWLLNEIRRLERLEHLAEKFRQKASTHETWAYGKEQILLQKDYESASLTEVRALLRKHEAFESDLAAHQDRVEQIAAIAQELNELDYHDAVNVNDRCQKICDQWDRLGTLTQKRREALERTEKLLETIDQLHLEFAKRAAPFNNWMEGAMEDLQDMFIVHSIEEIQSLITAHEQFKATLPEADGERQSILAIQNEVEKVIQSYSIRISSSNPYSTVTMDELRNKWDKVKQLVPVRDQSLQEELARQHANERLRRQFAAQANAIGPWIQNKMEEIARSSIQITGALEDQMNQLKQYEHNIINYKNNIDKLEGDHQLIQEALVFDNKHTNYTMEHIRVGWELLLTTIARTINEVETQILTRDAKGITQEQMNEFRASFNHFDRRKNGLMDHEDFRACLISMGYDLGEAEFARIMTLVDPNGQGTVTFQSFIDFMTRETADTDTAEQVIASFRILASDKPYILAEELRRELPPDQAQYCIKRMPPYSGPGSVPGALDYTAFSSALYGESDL

- Kd: 13.4 nM
- koff: 0.000341 s⁻¹
- kon: 25800 M⁻¹ s⁻¹
B1: HA-cMLCK, full length, expressed in HEK293 cells (enzyme, mouse, UniProt Q3UIZ8 1-795, looked up)
chain: MSGVSEEDPEGLAPQGLPALGGACLATMDKKLNVLTEKVDRLLHFQEDVTEKLQCVCQGMDHLEQDLHRLEASRELSLAGSGSTPPTTAQAAWPEVLELVRAVRQEGAQHGARLEALFKMVVAVDRAITLVGSTFQNSKVADFIMQGTVPGRKGSLADGPEENKEQAEVAGVKPNHVLTTGGVQADASRTLWEESQKEDIPVRTVEGLPLIINTSLKGADLTQAGASLRQGVEVLGPGQVPLPTEAESRLPETASENTGATLELSVAIDRISEVLTSLKMSQGGGQETSSSKPDCWLSEEAMRLSSGPLPQPLGPLTPDSDIHSGDALPRIPINMQEMATPGELLETQSGSPIGSAEAPGLGTVLEDQIPKGARPFPPLPKRSSNNGGMSAEEEIGSGAEPMRGPSLATRDWRDETVGTTDLQQGIDPGAVSPEPGKDHAAQGPGRTEAGRLSSAAEAAIVVLDDSAAPPAPFEHRVVSIKDTLISAGYTVSQHEVLGGGRFGQVHRCTERSTGLALAAKIIKVKNVKDREDVKNEVNIMNQLSHVNLIQLYDAFESKSSFTLIMEYVDGGELFDRITDEKYHLTELDVVLFTRQICEGVHYLHQHYILHLDLKPENILCVSQTGHQIKIIDFGLARRYKPREKLKVNFGTPEFLAPEVVNYEFVSFPTDMWSVGVITYMLLSGLSPFLGETDAETMNFIVNCSWDFDADTFKGLSEEAKDFVSRLLVKEKSCRMSATQCLKHEWLSHLPAKASGSNVRLRSQQLLQKYMAQSKWKKHFHVVTAVNRLRKFPTCP
notes: cardiac myosin light chain kinase (cMLCK), mouse, full length (residues to 795 by the printed deletion constructs); also called HA-MLCK; HA-full-length cMLCK; source: HEK293 cells, exogenous expression, in lysate (co-IP); purified (BLI)
